According to PMC3887093:

Target: Plasmodium vivax Duffy binding protein region II (DBP-RII), recombinant (Plasmodium vivax) (UniProt P22290)
Assay: ITC; DARC1-60 at 1.3 mM titrated into 1.4 mL of 130 µM DBP-RII; PBS; 10°C; independent two-site binding model after subtraction of both controls; molar ratios in monomers of DBP-RII

Chain of UniProt P22290 (P22290 211-525): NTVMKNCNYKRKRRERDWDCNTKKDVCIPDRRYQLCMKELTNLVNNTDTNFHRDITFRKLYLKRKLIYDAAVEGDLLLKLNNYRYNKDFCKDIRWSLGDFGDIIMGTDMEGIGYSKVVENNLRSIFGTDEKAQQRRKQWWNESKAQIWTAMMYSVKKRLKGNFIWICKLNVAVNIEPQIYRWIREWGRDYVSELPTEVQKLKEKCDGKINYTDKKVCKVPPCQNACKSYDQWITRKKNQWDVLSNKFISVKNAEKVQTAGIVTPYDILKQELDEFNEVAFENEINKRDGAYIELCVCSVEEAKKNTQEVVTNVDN

DARC N-terminal ectodomain, residues 1-60, unsulfated, three cysteines mutated to alanine (from UniProt Q16570 1-60) (domain or fragment)
Kd1 (first binding event, heterotrimer; two independent sites fit): 2180 nM | Kd2 (second binding event, heterotetramer; two independent sites fit): 88.5 nM | Kd of the first binding event (two independent sites fit): 2.18 µM | dH1 (first binding event): -2.66 kcal/mol | dH2 (second binding event): -3.34 kcal/mol | n1 (first binding event, per monomer of DBP-RII): 0.44 | n2 (second binding event, per monomer of DBP-RII): 0.5 | stoichiometry N: 1
